# Data taken from patent publication US20240101645A1 (HENRY M JACKSON FOUNDATION FOR THE ADVANCEMENT OF MILITARY …, published 2024).
# Residue numbers refer to the chain shown, from its start.
# T1: HCoV-229E spike antigens (bead panel) (HCoV-229E, UniProt P15423 16-1115)
# T1 sequence: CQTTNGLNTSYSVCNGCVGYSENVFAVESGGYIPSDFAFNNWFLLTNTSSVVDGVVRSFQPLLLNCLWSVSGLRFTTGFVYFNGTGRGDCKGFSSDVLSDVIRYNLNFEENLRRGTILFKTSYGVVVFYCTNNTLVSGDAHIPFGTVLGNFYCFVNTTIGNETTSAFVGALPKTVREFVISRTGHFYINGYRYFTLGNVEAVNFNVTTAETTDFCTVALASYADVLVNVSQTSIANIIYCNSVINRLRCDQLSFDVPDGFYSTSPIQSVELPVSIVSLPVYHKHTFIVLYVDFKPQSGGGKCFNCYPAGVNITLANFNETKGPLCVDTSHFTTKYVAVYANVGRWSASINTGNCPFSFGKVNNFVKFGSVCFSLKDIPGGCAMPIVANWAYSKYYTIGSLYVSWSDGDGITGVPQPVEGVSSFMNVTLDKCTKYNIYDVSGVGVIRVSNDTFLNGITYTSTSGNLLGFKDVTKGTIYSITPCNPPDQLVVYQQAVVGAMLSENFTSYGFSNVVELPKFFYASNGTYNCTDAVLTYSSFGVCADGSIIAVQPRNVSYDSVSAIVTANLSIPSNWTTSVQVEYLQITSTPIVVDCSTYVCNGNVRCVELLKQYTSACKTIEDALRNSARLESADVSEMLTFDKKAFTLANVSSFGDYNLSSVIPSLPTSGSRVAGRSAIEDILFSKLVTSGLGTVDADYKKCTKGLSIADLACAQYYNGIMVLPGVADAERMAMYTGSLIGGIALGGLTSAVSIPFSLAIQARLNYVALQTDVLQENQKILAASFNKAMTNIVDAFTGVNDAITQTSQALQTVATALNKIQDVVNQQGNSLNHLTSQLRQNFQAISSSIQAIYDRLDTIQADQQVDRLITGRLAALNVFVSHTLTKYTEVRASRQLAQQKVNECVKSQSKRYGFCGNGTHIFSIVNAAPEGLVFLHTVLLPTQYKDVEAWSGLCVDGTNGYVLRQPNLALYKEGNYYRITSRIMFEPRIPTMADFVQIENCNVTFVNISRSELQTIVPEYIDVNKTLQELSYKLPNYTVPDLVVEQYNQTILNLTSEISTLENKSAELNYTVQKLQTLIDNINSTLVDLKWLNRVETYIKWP
# T2: HCoV-HKU1 spike antigens (bead panel) (HCoV-HKU1, UniProt Q5MQD0 13-1300)
# T2 sequence: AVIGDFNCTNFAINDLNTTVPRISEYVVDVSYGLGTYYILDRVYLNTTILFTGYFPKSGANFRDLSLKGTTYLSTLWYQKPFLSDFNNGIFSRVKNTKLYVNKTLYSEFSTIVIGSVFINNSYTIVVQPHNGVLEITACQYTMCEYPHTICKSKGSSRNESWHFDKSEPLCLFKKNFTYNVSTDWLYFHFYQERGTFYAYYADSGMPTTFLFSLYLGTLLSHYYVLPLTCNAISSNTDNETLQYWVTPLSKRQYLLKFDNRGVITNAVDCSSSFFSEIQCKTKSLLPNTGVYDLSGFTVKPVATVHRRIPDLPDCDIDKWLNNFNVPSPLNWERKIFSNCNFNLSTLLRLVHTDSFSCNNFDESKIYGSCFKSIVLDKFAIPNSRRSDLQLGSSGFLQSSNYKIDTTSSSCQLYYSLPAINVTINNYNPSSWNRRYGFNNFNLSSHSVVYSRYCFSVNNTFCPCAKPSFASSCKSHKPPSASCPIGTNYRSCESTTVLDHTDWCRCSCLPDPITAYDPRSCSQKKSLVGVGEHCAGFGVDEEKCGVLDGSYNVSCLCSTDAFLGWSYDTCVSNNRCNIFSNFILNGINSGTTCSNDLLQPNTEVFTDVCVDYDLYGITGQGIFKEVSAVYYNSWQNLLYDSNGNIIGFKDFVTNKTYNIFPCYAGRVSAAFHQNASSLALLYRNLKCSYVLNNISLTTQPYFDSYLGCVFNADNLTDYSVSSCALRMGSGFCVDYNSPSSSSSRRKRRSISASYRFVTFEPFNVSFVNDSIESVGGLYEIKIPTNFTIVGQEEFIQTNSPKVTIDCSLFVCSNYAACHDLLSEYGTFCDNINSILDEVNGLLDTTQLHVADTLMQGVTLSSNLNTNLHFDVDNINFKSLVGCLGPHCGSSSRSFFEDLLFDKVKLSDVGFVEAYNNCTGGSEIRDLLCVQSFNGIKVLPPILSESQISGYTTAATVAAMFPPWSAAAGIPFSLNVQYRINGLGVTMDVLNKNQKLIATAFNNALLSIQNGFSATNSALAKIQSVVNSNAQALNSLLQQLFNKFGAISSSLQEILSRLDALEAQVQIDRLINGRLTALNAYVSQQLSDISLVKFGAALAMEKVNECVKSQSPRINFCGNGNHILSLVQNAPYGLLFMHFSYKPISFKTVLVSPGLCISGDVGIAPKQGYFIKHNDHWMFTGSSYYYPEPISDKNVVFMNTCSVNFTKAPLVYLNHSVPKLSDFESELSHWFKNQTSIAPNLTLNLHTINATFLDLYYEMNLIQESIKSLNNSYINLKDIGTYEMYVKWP
# B1: COV_1118 (antibody, V domains shown)
# VH: EVQLVESGGGLVKPGGSLRLSCAASGFSFSNYNMNWVRQAPGKGLEWVSYISSSSSYIYYADSVKGRFTISRDNAKNSLYLQMNSLRGEDTAVYSCAREASGAYYFDRSGYFDYWGQGTLVTVSP
# VL: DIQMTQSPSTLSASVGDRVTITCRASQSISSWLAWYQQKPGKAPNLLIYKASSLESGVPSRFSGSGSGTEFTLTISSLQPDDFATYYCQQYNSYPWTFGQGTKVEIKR
# notes: human IgG1
# B2: COV_1136 (antibody, V domains shown)
# VH: B1 VH with S28T, N31D, Y32C, Y50S, S54R, G88A
# VL: DIQMTQSPSTLSASVGDRVTITCRASQSISSWLAWYQQKPGKAPNLLIYKASSLESGVPSRFSGSGSGTEFTLTISSLQPDDFATYYCQQYNTYPWTFGQGTKVEIKR
# notes: human IgG1
# B3: COV_2093 (antibody, V domains shown)
# VH: EVQLVESGGGLVQPGGSLRLSCAASGFMFNRFWMSWVRQAPGKGLEWVTNIKQDGSEKNYVDSVKGRFTISRDNAKNSLYLQMNSLRAEDTAVYYCARDGLYYDFRSPSPFYGMDVWGQGTTVTVSS
# VL: DIQMTQSPSSLSASVGDRVTITCRASQSISSYLNWYQHKSGKAPKLLIYAASRLQSGVPSRFSGSGSGTDFTLTIVSLQPEDLATYYCQQSYSTPRTFGGGTKVEIKR
# notes: human IgG1
# B4: COV_2035 (antibody, V domains shown)
# VH: QVQLVQSGAEVKKPGASVKVSCKVSGYTLPELSIHWVRQAPGKGLEWLGGFDPEDGKIIYAQKFQGRVTMTEDTSTDTAYMELSSLRSEDTAVYYCATSPAVVERGWFDPWGQGTLVTVSS
# VL: QSALTQPPSASGSPGQSVTISCTGTSSDVGGYNYVSWYQQHPGKAPKLMIYEVSKRPSGVPDRFSGSKSGNMASLTVSGLQAEDEANYYCSSYAGSKRVFGGGTKLTVL
# notes: human IgG1
# B5: COV_2193 (antibody, V domains shown)
# VH: QVQLVQSGAEVKKPGASVKVSCKVSGYTLTDLSMHWVRQTPGKGLEWMGGFDAEDGETIYAQNFQGRVTMTEDTSIDVAYMELSSLRSEDTAVYYCATGSVGPDYWGQGTLVTVSS
# VL: SSELTQDPAVSVALGQTVRITCQGDSLRSYYASWFQQKPGQAPVLVIYLKNDRPSGIPDRFSGSSSGNTASLTITGAQAEDEADYYCNSRDSSGNHQVFGGGTKLTVL
# notes: human IgG1
# B6: COV_2137 (antibody, V domains shown)
# VH: EVQLVESGGGLVKPGGSLRLSCAASGFTFSSYTMNWVRQAPGKGLEWVSSISSGSSFIYYADSLRGRFTISRDNAKNSLYLQMNSLRAEDTAVYYCARAPEPQSVIYAYWYFDLWGRGTLVTVSS
# VL: QSALTQPASVSGSPGQSITFSCTGTSSDVGSYNLVSWYQQYPGKAPKLMIYEVNKRPSGVSNRFSGSKSGNTASLTISGLQAEDEADYYCCSYAGSSTFYVFGTGTKVTVLG
# notes: human IgG1
# B7: COV_3053 (antibody, V domains shown)
# VH: EVQLVESGGGLVQPGRSLRLSCTASGFTLGDYAMTWVRQAPGKGLEWLGIIRNKRYGETKQYAASVKGRFTFSRDDSKGIGYLQRLSLKIEDTGVYYCTREHIVRDDAFDVWGQGTTVTVSS
# VL: DIVMTQSPDSLAVSLGERATINCKSSQSVLYSSNNKNYIAWYQQRPGQPPKLLIYWTSTRASGVPDRFSGSGSGTDFALTISSLQAEDVAVYYCQQYYTIPRTFGQGTKVEIK
# notes: human IgG1
# B8: COV_2134 (antibody, V domains shown)
# VH: EVQLVESGGGVVQPGRSLRLSCAASGFIFSSYGMYWVRQAPGKGLEWVAVIWYDGSNKYYADSVKGRFTISRDNSKNTLYLQMNSLRAEDTAVYYCARDLSSSSGWDDYYYYYGMDVWGQGTTVTVSS
# VL: not shown
# notes: human IgG1
# B9: COV_2048 (antibody, V domains shown)
# VH: QVQLQESGPGLVKPSETLSLTCTVSGGSISNTSYYWGWIRQPPGKGLEWIGSIYRSGSTYYNPSLKSRVTISIDTSKNQFTLKLSSVTAADTAVYYCARDYYGDYSAKPMEYWGQGTLVTVSS
# VL: QSALTQPRSVSGSPGQSVTISCTGTSSDVGGYNYVSWYQQHPGKAPKLLIYDVSKRPSGVPDRFSGSKSGNTASLTISGLQAEDEADYYCCSYAGSYVVFGGGAKLTVLG
# notes: human IgG1
# B10: COV_2077 (antibody, V domains shown)
# VH: QVQLQESGPGLVKPSETLSLTCTVSGGSISSYSWSWIRQPPGKGLEWIGYIYYSGSTNYNPSLKSRVTISVDTSKNQFSLKLSSVTAADTAVYYCARESMGRYSLELRQPESAFDYWGRGTLVTVSS
# VL: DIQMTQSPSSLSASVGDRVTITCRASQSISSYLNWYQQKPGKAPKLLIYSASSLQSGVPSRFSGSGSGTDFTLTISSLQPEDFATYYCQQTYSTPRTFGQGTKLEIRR
# notes: human IgG1
# B11: COV_2100 (antibody, V domains shown)
# VH: EVQLVESGGGLVQPGGSLRLSCAASGFTFSSYDMYWVRQATGKGLEWVSAIGTAGDTYYPGSVKGRFTISRENAKNSLYLRMNSLRAGDTAVYFCARADKNTAMFFDYWGQGTLVTVSS
# VL: DIQMTQSPSSLSASVGDRVTITCRASQNINNFLHWYQQKPGNAPKLLIYAASTLQSGVPSRFSGSGSGTDFTLTISSLQPEDFATYYCQQSYSTPGGTFGGGTKVEIK
# notes: human IgG1
# B12: COV_2143 (antibody, V domains shown)
# VH: EVQLVESGGGVVQPGRSLRLSCAASGFTFNSFAMLWVRQAPGKGLEWVALFSYDGSNKYYADSVKGRFTISRDNSKNTLYLQMNNLRAVDTAVYYCARASPYDINGYYLHRIAFDIWGQGTMVTVSS
# VL: QSVLMQPPSVSGAPGQRVTISCTGSSSNIGAGYDVHWYQQLPGTAPKLLMYGNSNRPSGVPDRFSGSKSGTSASLAITGLQAEDEADYYCQSYDSGLSGWVFGGGTKLTVLG
# notes: human IgG1
# How the values were obtained:
# [1] = biological target: SARS-CoV-1 spike antigens (bead panel) (SARS-CoV-1, UniProt P59594 14-1195); experiment: multiplex bead assay
# [2] = biological target: T1, HCoV-229E spike antigens (bead panel); experiment: multiplex bead assay
# [3] = biological target: T2, HCoV-HKU1 spike antigens (bead panel); experiment: multiplex bead assay
# [4] = biological target: SARS-CoV-2 S on pseudovirions (Wuhan Hu-1 / IL1/2020, last 18 amino acids removed) (SARS-CoV-2, UniProt P0DTC2 14-1273); experiment: cell-based or functional assay
Binder,binding result [1],binding result [2],binding result [3],"Mean IC50, pSV neutralization [4]","Mean IC80, pSV neutralization [4]"
B1,no binding,no binding,no binding,,
B2,no binding,no binding,no binding,,
B3,,no binding,no binding,≥ 25 µg/ml,≥ 25 µg/ml
B4,no binding,no binding,,0.04 µg/ml,≥ 25 µg/ml
B5,,no binding,no binding,≥ 25 µg/ml,≥ 25 µg/ml
B6,no binding,no binding,no binding,,
B7,no binding,no binding,no binding,,
B8,,no binding,no binding,16.1 µg/ml,≥ 25 µg/ml
B9,,no binding,no binding,20.3 µg/ml,≥ 25 µg/ml
B10,,no binding,no binding,≥ 25 µg/ml,≥ 25 µg/ml
B11,,no binding,no binding,23 µg/ml,≥ 25 µg/ml
B12,,no binding,no binding,≥ 25 µg/ml,≥ 25 µg/ml
